Experimental data: patent US20210388087A1 (Chugai, published 2021)

T1: Human CD3eg linker (human)
T1 construct: Single chain: epsilon and gamma subunits of human CD3 joined by a 29-mer linker, Flag-tag at the C-terminus; also called recombinant human CD3
T1 chain: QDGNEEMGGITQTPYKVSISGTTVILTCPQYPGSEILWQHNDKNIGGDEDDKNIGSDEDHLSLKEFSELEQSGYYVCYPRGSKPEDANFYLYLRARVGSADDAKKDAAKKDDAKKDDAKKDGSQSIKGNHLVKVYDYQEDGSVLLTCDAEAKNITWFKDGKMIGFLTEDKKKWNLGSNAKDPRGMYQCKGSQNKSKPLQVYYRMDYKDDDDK

B1: H183/L072 VL S26A (antibody, name in Kabat numbering, V domains shown)
VH: QVQLVESGGGLVQPGRSLRLSCAASGFTFSNAWMHWVRQAPGKGLEWVAQIKDKGNAYAAYYAPSVKGRFTISRDDSKNSIYLQMNSLKTEDTAVYYCHYVHYASASTVLPAFGVDAWGQGTTVTVSS
VL: DIVMTQSPLSLPVTPGEPASISCQAAQELVHMNRNTYLHWYQQKPGQAPRLLIYKVSNRFPGVPDRFSGSGSGTDFTLKISRVEAEDVGVYYCAQGTSVPFTFGQGTKLEIK
notes: Dual-Ig
B2: H183/L072 VL A25I (antibody, name in Kabat numbering, V domains shown)
VH: QVQLVESGGGLVQPGRSLRLSCAASGFTFSNAWMHWVRQAPGKGLEWVAQIKDKGNAYAAYYAPSVKGRFTISRDDSKNSIYLQMNSLKTEDTAVYYCHYVHYASASTVLPAFGVDAWGQGTTVTVSS
VL: DIVMTQSPLSLPVTPGEPASISCQISQELVHMNRNTYLHWYQQKPGQAPRLLIYKVSNRFPGVPDRFSGSGSGTDFTLKISRVEAEDVGVYYCAQGTSVPFTFGQGTKLEIK
notes: Dual-Ig
B3: H183/L072 VL A25M (antibody, name in Kabat numbering, V domains shown)
VH: QVQLVESGGGLVQPGRSLRLSCAASGFTFSNAWMHWVRQAPGKGLEWVAQIKDKGNAYAAYYAPSVKGRFTISRDDSKNSIYLQMNSLKTEDTAVYYCHYVHYASASTVLPAFGVDAWGQGTTVTVSS
VL: DIVMTQSPLSLPVTPGEPASISCQMSQELVHMNRNTYLHWYQQKPGQAPRLLIYKVSNRFPGVPDRFSGSGSGTDFTLKISRVEAEDVGVYYCAQGTSVPFTFGQGTKLEIK
notes: Dual-Ig
B4: H183/L072 VL A25G (antibody, name in Kabat numbering, V domains shown)
VH: QVQLVESGGGLVQPGRSLRLSCAASGFTFSNAWMHWVRQAPGKGLEWVAQIKDKGNAYAAYYAPSVKGRFTISRDDSKNSIYLQMNSLKTEDTAVYYCHYVHYASASTVLPAFGVDAWGQGTTVTVSS
VL: DIVMTQSPLSLPVTPGEPASISCQGSQELVHMNRNTYLHWYQQKPGQAPRLLIYKVSNRFPGVPDRFSGSGSGTDFTLKISRVEAEDVGVYYCAQGTSVPFTFGQGTKLEIK
notes: Dual-Ig
B5: H183/L072 VL A25N (antibody, name in Kabat numbering, V domains shown)
VH: QVQLVESGGGLVQPGRSLRLSCAASGFTFSNAWMHWVRQAPGKGLEWVAQIKDKGNAYAAYYAPSVKGRFTISRDDSKNSIYLQMNSLKTEDTAVYYCHYVHYASASTVLPAFGVDAWGQGTTVTVSS
VL: DIVMTQSPLSLPVTPGEPASISCQNSQELVHMNRNTYLHWYQQKPGQAPRLLIYKVSNRFPGVPDRFSGSGSGTDFTLKISRVEAEDVGVYYCAQGTSVPFTFGQGTKLEIK
notes: Dual-Ig
B6: H183/L072 VL A25Q (antibody, name in Kabat numbering, V domains shown)
VH: QVQLVESGGGLVQPGRSLRLSCAASGFTFSNAWMHWVRQAPGKGLEWVAQIKDKGNAYAAYYAPSVKGRFTISRDDSKNSIYLQMNSLKTEDTAVYYCHYVHYASASTVLPAFGVDAWGQGTTVTVSS
VL: DIVMTQSPLSLPVTPGEPASISCQQSQELVHMNRNTYLHWYQQKPGQAPRLLIYKVSNRFPGVPDRFSGSGSGTDFTLKISRVEAEDVGVYYCAQGTSVPFTFGQGTKLEIK
notes: Dual-Ig
B7: H183/L072 VL A25L (antibody, name in Kabat numbering, V domains shown)
VH: QVQLVESGGGLVQPGRSLRLSCAASGFTFSNAWMHWVRQAPGKGLEWVAQIKDKGNAYAAYYAPSVKGRFTISRDDSKNSIYLQMNSLKTEDTAVYYCHYVHYASASTVLPAFGVDAWGQGTTVTVSS
VL: DIVMTQSPLSLPVTPGEPASISCQLSQELVHMNRNTYLHWYQQKPGQAPRLLIYKVSNRFPGVPDRFSGSGSGTDFTLKISRVEAEDVGVYYCAQGTSVPFTFGQGTKLEIK
notes: Dual-Ig
B8: H183/L072 VL A25P (antibody, name in Kabat numbering, V domains shown)
VH: QVQLVESGGGLVQPGRSLRLSCAASGFTFSNAWMHWVRQAPGKGLEWVAQIKDKGNAYAAYYAPSVKGRFTISRDDSKNSIYLQMNSLKTEDTAVYYCHYVHYASASTVLPAFGVDAWGQGTTVTVSS
VL: DIVMTQSPLSLPVTPGEPASISCQPSQELVHMNRNTYLHWYQQKPGQAPRLLIYKVSNRFPGVPDRFSGSGSGTDFTLKISRVEAEDVGVYYCAQGTSVPFTFGQGTKLEIK
notes: Dual-Ig
B9: H183/L072 VL A25S (antibody, name in Kabat numbering, V domains shown)
VH: QVQLVESGGGLVQPGRSLRLSCAASGFTFSNAWMHWVRQAPGKGLEWVAQIKDKGNAYAAYYAPSVKGRFTISRDDSKNSIYLQMNSLKTEDTAVYYCHYVHYASASTVLPAFGVDAWGQGTTVTVSS
VL: DIVMTQSPLSLPVTPGEPASISCQSSQELVHMNRNTYLHWYQQKPGQAPRLLIYKVSNRFPGVPDRFSGSGSGTDFTLKISRVEAEDVGVYYCAQGTSVPFTFGQGTKLEIK
notes: Dual-Ig
B10: H183/L072 VH Y94M (antibody, name in Kabat numbering, V domains shown)
VH: QVQLVESGGGLVQPGRSLRLSCAASGFTFSNAWMHWVRQAPGKGLEWVAQIKDKGNAYAAYYAPSVKGRFTISRDDSKNSIYLQMNSLKTEDTAVYYCHMVHYASASTVLPAFGVDAWGQGTTVTVSS
VL: DIVMTQSPLSLPVTPGEPASISCQASQELVHMNRNTYLHWYQQKPGQAPRLLIYKVSNRFPGVPDRFSGSGSGTDFTLKISRVEAEDVGVYYCAQGTSVPFTFGQGTKLEIK
B11: H183/L072 VH Y94A (antibody, name in Kabat numbering, V domains shown)
VH: QVQLVESGGGLVQPGRSLRLSCAASGFTFSNAWMHWVRQAPGKGLEWVAQIKDKGNAYAAYYAPSVKGRFTISRDDSKNSIYLQMNSLKTEDTAVYYCHAVHYASASTVLPAFGVDAWGQGTTVTVSS
VL: DIVMTQSPLSLPVTPGEPASISCQASQELVHMNRNTYLHWYQQKPGQAPRLLIYKVSNRFPGVPDRFSGSGSGTDFTLKISRVEAEDVGVYYCAQGTSVPFTFGQGTKLEIK
B12: H183/L072 VH Y94P (antibody, name in Kabat numbering, V domains shown)
VH: QVQLVESGGGLVQPGRSLRLSCAASGFTFSNAWMHWVRQAPGKGLEWVAQIKDKGNAYAAYYAPSVKGRFTISRDDSKNSIYLQMNSLKTEDTAVYYCHPVHYASASTVLPAFGVDAWGQGTTVTVSS
VL: DIVMTQSPLSLPVTPGEPASISCQASQELVHMNRNTYLHWYQQKPGQAPRLLIYKVSNRFPGVPDRFSGSGSGTDFTLKISRVEAEDVGVYYCAQGTSVPFTFGQGTKLEIK
B13: H183/L072 VH Y97I (antibody, name in Kabat numbering, V domains shown)
VH: QVQLVESGGGLVQPGRSLRLSCAASGFTFSNAWMHWVRQAPGKGLEWVAQIKDKGNAYAAYYAPSVKGRFTISRDDSKNSIYLQMNSLKTEDTAVYYCHYVHIASASTVLPAFGVDAWGQGTTVTVSS
VL: DIVMTQSPLSLPVTPGEPASISCQASQELVHMNRNTYLHWYQQKPGQAPRLLIYKVSNRFPGVPDRFSGSGSGTDFTLKISRVEAEDVGVYYCAQGTSVPFTFGQGTKLEIK
B14: H183/L072 VH Y94I (antibody, name in Kabat numbering, V domains shown)
VH: QVQLVESGGGLVQPGRSLRLSCAASGFTFSNAWMHWVRQAPGKGLEWVAQIKDKGNAYAAYYAPSVKGRFTISRDDSKNSIYLQMNSLKTEDTAVYYCHIVHYASASTVLPAFGVDAWGQGTTVTVSS
VL: DIVMTQSPLSLPVTPGEPASISCQASQELVHMNRNTYLHWYQQKPGQAPRLLIYKVSNRFPGVPDRFSGSGSGTDFTLKISRVEAEDVGVYYCAQGTSVPFTFGQGTKLEIK
B15: H183/L072 VH Y97P (antibody, name in Kabat numbering, V domains shown)
VH: QVQLVESGGGLVQPGRSLRLSCAASGFTFSNAWMHWVRQAPGKGLEWVAQIKDKGNAYAAYYAPSVKGRFTISRDDSKNSIYLQMNSLKTEDTAVYYCHYVHPASASTVLPAFGVDAWGQGTTVTVSS
VL: DIVMTQSPLSLPVTPGEPASISCQASQELVHMNRNTYLHWYQQKPGQAPRLLIYKVSNRFPGVPDRFSGSGSGTDFTLKISRVEAEDVGVYYCAQGTSVPFTFGQGTKLEIK
B16: H183/L072 VH Y97M (antibody, name in Kabat numbering, V domains shown)
VH: QVQLVESGGGLVQPGRSLRLSCAASGFTFSNAWMHWVRQAPGKGLEWVAQIKDKGNAYAAYYAPSVKGRFTISRDDSKNSIYLQMNSLKTEDTAVYYCHYVHMASASTVLPAFGVDAWGQGTTVTVSS
VL: DIVMTQSPLSLPVTPGEPASISCQASQELVHMNRNTYLHWYQQKPGQAPRLLIYKVSNRFPGVPDRFSGSGSGTDFTLKISRVEAEDVGVYYCAQGTSVPFTFGQGTKLEIK
B17: H183/L072 VH Y97A (antibody, name in Kabat numbering, V domains shown)
VH: QVQLVESGGGLVQPGRSLRLSCAASGFTFSNAWMHWVRQAPGKGLEWVAQIKDKGNAYAAYYAPSVKGRFTISRDDSKNSIYLQMNSLKTEDTAVYYCHYVHAASASTVLPAFGVDAWGQGTTVTVSS
VL: DIVMTQSPLSLPVTPGEPASISCQASQELVHMNRNTYLHWYQQKPGQAPRLLIYKVSNRFPGVPDRFSGSGSGTDFTLKISRVEAEDVGVYYCAQGTSVPFTFGQGTKLEIK
B18: H183/L072 VH Y94L (antibody, name in Kabat numbering, V domains shown)
VH: QVQLVESGGGLVQPGRSLRLSCAASGFTFSNAWMHWVRQAPGKGLEWVAQIKDKGNAYAAYYAPSVKGRFTISRDDSKNSIYLQMNSLKTEDTAVYYCHLVHYASASTVLPAFGVDAWGQGTTVTVSS
VL: DIVMTQSPLSLPVTPGEPASISCQASQELVHMNRNTYLHWYQQKPGQAPRLLIYKVSNRFPGVPDRFSGSGSGTDFTLKISRVEAEDVGVYYCAQGTSVPFTFGQGTKLEIK
B19: H183/L072 VH Y97L (antibody, name in Kabat numbering, V domains shown)
VH: QVQLVESGGGLVQPGRSLRLSCAASGFTFSNAWMHWVRQAPGKGLEWVAQIKDKGNAYAAYYAPSVKGRFTISRDDSKNSIYLQMNSLKTEDTAVYYCHYVHLASASTVLPAFGVDAWGQGTTVTVSS
VL: DIVMTQSPLSLPVTPGEPASISCQASQELVHMNRNTYLHWYQQKPGQAPRLLIYKVSNRFPGVPDRFSGSGSGTDFTLKISRVEAEDVGVYYCAQGTSVPFTFGQGTKLEIK

Each binder was assayed against T2, Human CD137 ECD (human) (assay: Biacore SPR, vs parent H183/L072).
T2 construct: entry includes C-terminal His-tag and biotin acceptor peptide; also called human CD137 extracellular domain; 4-1BB
T2 sequence (chain, as listed by the source limits assumed): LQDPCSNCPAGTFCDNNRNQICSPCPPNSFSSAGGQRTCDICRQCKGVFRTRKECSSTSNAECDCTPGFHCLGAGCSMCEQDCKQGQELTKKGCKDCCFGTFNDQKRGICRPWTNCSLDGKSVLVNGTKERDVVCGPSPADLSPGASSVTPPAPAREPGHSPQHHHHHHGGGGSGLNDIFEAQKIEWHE
With B1 the “fold change of affinity” value was 0.8 fold. For B2, the “fold change of affinity” value was 0.2 fold. With B3 the “fold change of affinity” value was 0.1 fold. For B4, the “fold change of affinity” value was 0.7 fold. With B5 the “fold change of affinity” value was 0.2 fold. In the case of B6, the “fold change of affinity” value is reported as 0.1 fold. In the case of B7, the “fold change of affinity” value is reported as 0.1 fold. With B8 the “fold change of affinity” value was 1.4 fold. For B9, the “fold change of affinity” value was 1.1 fold.

Molecular target: T1, Human CD3eg linker
Assay: Biacore SPR, vs template H183/L072
B10 was tested, and the “fold change of affinity” value was 0 fold. With B11 the “fold change of affinity” value was 0.4 fold. For B12, the “fold change of affinity” value was 0 fold. With B13 the “fold change of affinity” value was 0 fold. For B14, the “fold change of affinity” value was 0 fold. In the case of B15, the “fold change of affinity” value is reported as 0 fold. In the case of B16, the “fold change of affinity” value is reported as 0 fold. With B17 the “fold change of affinity” value was 0 fold. With B18 the “fold change of affinity” value was 0.8 fold. For B19, the “fold change of affinity” value was 0 fold.
